In US20240343814A1 one finds Kd, koff and kon data, which are given here for 24 molecules.

Where a chain is given by its changes, count along the chain named.

First the molecules themselves.
B1: VRDN-02519 (antibody, V domains shown)
VH: EVQLVQSGGGLVKPGGSLRLSCAASGFTFSSFAMHWVRQAPGKGLEWISVIDTRGATYYADSVKGRFTISRDNAKNSLYLQMNSLRAEDTAVYYCARLHNFYYGMDVWGQGTTVTVSS
VL: EIVLTQSPGTLSVSPGERATLSCRASQSIGSSLHWYQQKPGQAPRLLIKYASQSLSGIPDRFSGSGSGTDFTLTISRLEPEDFAVYYCHQSSRLPHTFGQGTKVEIK
B2: VRDN-02528 (antibody, V domains shown)
VH: B1 VH with H99G
VL: B1 VL with R24H
B3: VRDN-02532 (antibody, V domains shown)
VH: B1 VH with H99G
VL: B1 VL with S28H
B4: VRDN-02503 (antibody, V domains shown)
VH: B1 VH with T28H, H99G
VL: B1 VL
B5: VRDN-02534 (antibody, V domains shown)
VH: B1 VH with H99G
VL: B1 VL with G30H
B6: VRDN-02530 (antibody, V domains shown)
VH: B1 VH with H99G
VL: B1 VL with S26H
B7: VRDN-02531 (antibody, V domains shown)
VH: B1 VH with H99G
VL: B1 VL with Q27H
B8: VRDN-02535 (antibody, V domains shown)
VH: B1 VH with H99G
VL: B1 VL with S31H
B9: VRDN-02529 (antibody, V domains shown)
VH: B1 VH with H99G
VL: B1 VL with A25H
B10: VRDN-02537 (antibody, V domains shown)
VH: B1 VH with H99G
VL: B1 VL with L33H
B11: VRDN-02523 (antibody, V domains shown)
VH: B1 VH with H99G, Y103H
VL: B1 VL
B12: VRDN-02539 (antibody, V domains shown)
VH: B1 VH with H99G
VL: B1 VL with Y50H
B13: VRDN-02504 (antibody, V domains shown)
VH: B1 VH with F29H, H99G
VL: B1 VL
B14: VRDN-02522 (antibody, V domains shown)
VH: B1 VH with H99G, Y102H
VL: B1 VL
B15: VRDN-02533 (antibody, V domains shown)
VH: B1 VH with H99G
VL: B1 VL with I29H
B16: VRDN-02520 (antibody, V domains shown)
VH: B1 VH with H99G, N100H
VL: B1 VL
B17: VRDN-02525 (antibody, V domains shown)
VH: B1 VH with H99G, M105H
VL: B1 VL
B18: VRDN-02540 (antibody, V domains shown)
VH: B1 VH with H99G
VL: B1 VL with A51H
B19: VRDN-02502 (antibody, V domains shown)
VH: B1 VH with F27H, H99G
VL: B1 VL
B20: VRDN-02536 (antibody, V domains shown)
VH: B1 VH with H99G
VL: B1 VL with S32H
B21: VRDN-02527 (antibody, V domains shown)
VH: B1 VH with H99G, V107H
VL: B1 VL
B22: VRDN-02524 (antibody, V domains shown)
VH: B1 VH with H99G, G104H
VL: B1 VL
B23: VRDN-02541 (antibody, V domains shown)
VH: B1 VH with H99G
VL: B1 VL with S52H
B24: VRDN-02521 (antibody, V domains shown)
VH: B1 VH with H99G, F101H
VL: B1 VL

The target in one experiment is Recombinant human his-tagged IGF 1R extracellular domain protein (human) (UniProt P08069). In words: SPR, captured IgG, IGF-1R ECD-his analyte, dissociation pH 7.4. For orientation: SPR reads the build-up and loss of mass on a sensor chip optically.
As a reminder, the Kd is the free concentration of one partner at which half of the binding sites on the other are occupied at equilibrium, for simple one-to-one binding. The term koff denotes a measure of how fast the partners let go of each other. What is called kon is the second-order rate constant of association. In the case of B1, the Kd worked out at 10.5 nM, the koff amounted to 0.00366 s⁻¹ and the on-rate constant (kon) worked out at 348000 M⁻¹ s⁻¹.

Regarding B2, the Kd was found to be 0.252 nM, the koff stood at 3.55e-05 s⁻¹ and the kon was 141000 M⁻¹ s⁻¹.

As for B3, the dissociation constant Kd was found to be 0.316 nM, the koff was found to be 4.08e-05 s⁻¹ and the on-rate (kon) came to 129000 M⁻¹ s⁻¹.

Consider B4, for which the Kd worked out at 1.53 nM, the koff was found to be 0.000161 s⁻¹ and the kon turned out to be 105000 M⁻¹ s⁻¹.

For the molecule B5, the equilibrium dissociation constant (Kd) worked out at 0.0051 nM, the koff is 1e-06 s⁻¹ and the kon amounted to 196000 M⁻¹ s⁻¹.

As for B6, the Kd is 0.102 nM, the koff is 1.53e-05 s⁻¹ and the association rate constant (kon) came out at 150000 M⁻¹ s⁻¹.

B7: the dissociation constant (Kd) amounted to 0.85 nM, the koff worked out at 2.1e-05 s⁻¹ and the association rate constant (kon) turned out to be 24700 M⁻¹ s⁻¹.

With B8, the Kd was determined as 0.363 nM, the koff was determined as 4.07e-05 s⁻¹ and the association rate constant (kon) amounted to 112000 M⁻¹ s⁻¹.

Take B9: the equilibrium dissociation constant (Kd) was 3.8 nM, the koff is 0.000103 s⁻¹ and the kon came to 27100 M⁻¹ s⁻¹.

With B10, the Kd was 0.802 nM, the off-rate (koff) was found to be 7.16e-05 s⁻¹ and the on-rate (kon) was determined as 89300 M⁻¹ s⁻¹.

With B11, the Kd worked out at 0.717 nM, the koff is 2.74e-05 s⁻¹ and the kon is 38200 M⁻¹ s⁻¹.

Consider B12, for which the Kd was determined as 0.00588 nM, the off-rate (koff) turned out to be 1e-06 s⁻¹ and the kon was found to be 170000 M⁻¹ s⁻¹.

As to B13, the equilibrium dissociation constant (Kd) came out at 5.08 nM, the koff turned out to be 0.000186 s⁻¹ and the kon is 36600 M⁻¹ s⁻¹.

Turning to B14, the Kd amounted to 0.37 nM, the off-rate constant (koff) is 1.73e-05 s⁻¹ and the kon was determined as 46700 M⁻¹ s⁻¹.

As for B15, the Kd is 0.519 nM, the koff worked out at 4.45e-05 s⁻¹ and the kon amounted to 85700 M⁻¹ s⁻¹.

B16: the equilibrium dissociation constant (Kd) stood at 0.0069 nM, the koff is 1e-06 s⁻¹ and the association rate constant (kon) came to 145000 M⁻¹ s⁻¹.

Consider B17, for which the Kd turned out to be 0.00758 nM, the koff came to 1e-06 s⁻¹ and the kon was determined as 132000 M⁻¹ s⁻¹.

As to B18, the equilibrium dissociation constant (Kd) worked out at 0.434 nM, the off-rate (koff) came to 4.25e-05 s⁻¹ and the on-rate (kon) stood at 97900 M⁻¹ s⁻¹.

For the molecule B19, the dissociation constant Kd came to 0.0244 nM, the koff was 4.1e-06 s⁻¹ and the kon was 168000 M⁻¹ s⁻¹.

In the case of B20, the dissociation constant (Kd) came out at 0.00746 nM, the koff stood at 1e-06 s⁻¹ and the kon was found to be 134000 M⁻¹ s⁻¹.

As for B21, the Kd is 0.225 nM, the koff is 2.16e-05 s⁻¹ and the on-rate (kon) worked out at 95900 M⁻¹ s⁻¹.

As for B22, the equilibrium dissociation constant (Kd) came out at 0.00752 nM, the dissociation rate constant (koff) was 1e-06 s⁻¹ and the on-rate (kon) was 133000 M⁻¹ s⁻¹.

As to B23, the Kd was 0.00654 nM, the koff is 1e-06 s⁻¹ and the association rate constant (kon) turned out to be 153000 M⁻¹ s⁻¹.

Turning to B24, the Kd is 1.48 nM, the koff worked out at 7.2e-05 s⁻¹ and the association rate constant (kon) stood at 48500 M⁻¹ s⁻¹.

Another experiment has the same target. As to the kind of experiment: SPR, captured IgG, IGF-1R ECD-his analyte, dissociation pH 6.
With B1, the dissociation constant (Kd) was 16.9 nM, the koff stood at 0.000627 s⁻¹ and the on-rate (kon) stood at 37100 M⁻¹ s⁻¹.

As for B2, the dissociation constant Kd was 0.0246 nM, the koff is 1e-06 s⁻¹ and the association rate constant (kon) came out at 40600 M⁻¹ s⁻¹.

For the molecule B3, the dissociation constant Kd was 0.0292 nM, the off-rate (koff) worked out at 1e-06 s⁻¹ and the association rate constant (kon) turned out to be 34300 M⁻¹ s⁻¹.

Take B4: the dissociation constant (Kd) is 0.0262 nM, the koff came to 1e-06 s⁻¹ and the on-rate constant (kon) came to 38100 M⁻¹ s⁻¹.

As to B5, the equilibrium dissociation constant (Kd) was found to be 0.0393 nM, the koff was 1.17e-06 s⁻¹ and the kon amounted to 29800 M⁻¹ s⁻¹.

B6: the Kd was found to be 0.029 nM, the off-rate (koff) came to 1e-06 s⁻¹ and the kon is 34500 M⁻¹ s⁻¹.

In the case of B7, the dissociation constant (Kd) stood at 0.0319 nM, the koff was 1e-06 s⁻¹ and the kon was 31300 M⁻¹ s⁻¹.

As to B8, the dissociation constant Kd was 0.0273 nM, the koff came out at 1e-06 s⁻¹ and the on-rate (kon) came to 36600 M⁻¹ s⁻¹.

Take B9: the dissociation constant Kd worked out at 0.0541 nM, the koff amounted to 1e-06 s⁻¹ and the kon was determined as 18500 M⁻¹ s⁻¹.

On to B10, for which the Kd turned out to be 0.036 nM, the koff was 1e-06 s⁻¹ and the on-rate constant (kon) turned out to be 27800 M⁻¹ s⁻¹.

As for B11, the Kd amounted to 0.036 nM, the off-rate constant (koff) is 1e-06 s⁻¹ and the on-rate (kon) turned out to be 27800 M⁻¹ s⁻¹.

B12: the Kd was determined as 21.6 nM, the koff came to 0.000584 s⁻¹ and the kon was 27000 M⁻¹ s⁻¹.

For the molecule B13, the Kd amounted to 0.0242 nM, the off-rate constant (koff) amounted to 1e-06 s⁻¹ and the on-rate constant (kon) stood at 41300 M⁻¹ s⁻¹.

B14: the dissociation constant (Kd) amounted to 0.0376 nM, the koff came out at 1e-06 s⁻¹ and the on-rate (kon) was found to be 26600 M⁻¹ s⁻¹.

B15: the Kd came to 0.0493 nM, the koff is 1e-06 s⁻¹ and the kon came to 20300 M⁻¹ s⁻¹.

Turning to B16, the dissociation constant Kd was 0.0242 nM, the koff was determined as 1e-06 s⁻¹ and the association rate constant (kon) was found to be 41400 M⁻¹ s⁻¹.

Take B17: the dissociation constant (Kd) is 4.58 nM, the off-rate (koff) came to 0.000147 s⁻¹ and the kon was 32100 M⁻¹ s⁻¹.

On to B18, for which the Kd is 0.0662 nM, the koff worked out at 1e-06 s⁻¹ and the kon is 15100 M⁻¹ s⁻¹.

For the molecule B19, the equilibrium dissociation constant (Kd) was determined as 0.0375 nM, the koff stood at 1e-06 s⁻¹ and the kon was determined as 26700 M⁻¹ s⁻¹.

As to B20, the equilibrium dissociation constant (Kd) was found to be 0.0228 nM, the koff came out at 1e-06 s⁻¹ and the association rate constant (kon) amounted to 43900 M⁻¹ s⁻¹.

Take B21: the Kd came out at 0.0258 nM, the koff was found to be 1e-06 s⁻¹ and the kon came to 38800 M⁻¹ s⁻¹.

With B22, the equilibrium dissociation constant (Kd) is 1.22 nM, the dissociation rate constant (koff) came out at 4.66e-05 s⁻¹ and the kon amounted to 38300 M⁻¹ s⁻¹.

Consider B23, for which the Kd stood at 0.028 nM, the koff was determined as 1e-06 s⁻¹ and the kon stood at 35700 M⁻¹ s⁻¹.

On to B24, for which the equilibrium dissociation constant (Kd) came to 0.05 nM, the off-rate (koff) was 1e-06 s⁻¹ and the association rate constant (kon) amounted to 20000 M⁻¹ s⁻¹.
